Source: patent US12458688B2, “Epitopes” (Scancell Limited, priority 2018, dated 2025)
Where no end group is shown, it is not given here. [ ]: non-standard residue; d: D form. hCit = NC(=O)NCCCC[C@H](N)C(=O)O

Biological target: T1, HLA-DP4 (Homo sapiens, UniProt P04440+P20036)
T1 sequence (P20036 29-260): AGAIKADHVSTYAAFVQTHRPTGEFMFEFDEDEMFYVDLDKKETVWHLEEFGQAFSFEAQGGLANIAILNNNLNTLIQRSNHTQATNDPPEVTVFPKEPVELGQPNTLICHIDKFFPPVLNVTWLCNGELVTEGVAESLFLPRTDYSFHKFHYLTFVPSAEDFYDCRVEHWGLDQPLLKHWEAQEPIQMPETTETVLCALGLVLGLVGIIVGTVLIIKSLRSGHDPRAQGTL
T1 sequence (P04440 30-258): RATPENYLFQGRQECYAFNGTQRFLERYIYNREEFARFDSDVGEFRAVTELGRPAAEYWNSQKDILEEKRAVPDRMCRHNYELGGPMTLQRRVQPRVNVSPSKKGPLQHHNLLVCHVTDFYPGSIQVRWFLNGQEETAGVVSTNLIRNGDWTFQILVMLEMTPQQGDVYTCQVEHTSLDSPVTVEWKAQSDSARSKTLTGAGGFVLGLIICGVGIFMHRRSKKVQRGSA
Test: DP4 competition assay with biotinylated Hep B peptide
Conditions: inhibition of biotinylated Hep B binding to HLA-DP4, 5 fold excess test peptide, equal amount for unlabelled Hep B
Description: 2×T175 gave 2.5×10^7 B16 HHDII/DP4 (B16F1 β2M H2Ab1 dKO A35 HHDII/DP4 H7/2E9/F9 p14) cells. This was enough for 5 preps using the following protocol with Mem-PER™ Plus Membrane Protein Extraction Kit (thermo-scientific cat #89842).
5×10^6 cells were resuspended in the growth media by scraping the cells off the surface of the plate with a cell scraper and then centrifuged at 300 g for 5 mins. The cell pellet was washed with 3 ml of Cell Wash Solution and centrifuged at 300 g for 5 mins. The supernatant was removed and discarded. The cells were resuspended in 1.5 ml of Cell Wash Solution and transfer to a 2 ml centrifuge tube and centrifuged at 300 g for 5 mins. The supernatant was discarded. 0.75 ml of permeabilization buffer was added to the cell pellet and vortexed briefly to obtain a homogeneous cell suspension and incubated for 10 mins at 4° C. with constant mixing. The permeabilized cells were centrifuge for 15 mins at 16,000g before carefully removing the supernatant containing cytosolic proteins and transfering to a new tube. 0.5 ml of solubilization buffer was added to the pellet and resuspend prior to incubating at 4° C. for 30 minutes with constant mixing prior to centrifugation at 16,000g for 15 mins at 4° C. The supernatant containing solubilized membrane and membrane-associated proteins was transfered to a new tube. Aliquots were frozen at −80° C. for future use. 12.5 μl Halt™ Protease and Phosphatase Inhibitor Cocktail, EDTA-free (100X) thermo-scientific (Catalog number 78445) was added prior to freezing.
High binding plates were coated with streptavidin (Sigma S4762 at 1 mg/ml) 1/500 in PBS and incubated overnight at 4° C. The plates were blocked with 1% BSA in PBS for 4 hrs at room temp and washed 3×PBS/0.5% Tweenx. 450 μl of cell prep lysate (B16F1 B16 HHDII/DP4 H7/2E9/F9) was mixed with 50 μg test peptide (see below) or 10 μg of unlabelled Hep B peptide for 30 mins. 10 μg biotinylated Hep B peptide was added & incubated for 4 hrs at 37° C.:
Lysate/peptide mix was added to the plates at 100 μl/well and incubated for 4 hrs at room temperature. Plates were washed 3× with PBS/0.5% Tween. 100 μl per well of Leinco anti-Human HLA-DP4 clone B7/21 #H260 1 mg/ml at 1/500 dilution in 1% BSA/PBS was added and incubated for 1 hr at room temperature prior to washing 3× PBS/0.5% Tween. Goat anti-mouse lgG3-HRP at 0.5 mg/ml 1/500 100 μl per well (Invitrogen #M32607) diluted in 1% BSA/PBS) was added for 1 hr at room temperature prior to washing and adding 150 μl of TMB substrate to each well. The reaction was stopped with 50 μl of 2N H2SO4 and plates read plate at 450 nm.
To ensure that the biotinylation of Hep B had not interfered with its binding, HLA-DP4 was incubated with equal amounts of biotinylated and unlabelled Hep B peptide. Unlabelled peptide competed equally reducing binding by 47% (FIG. 53b).
The biotinylated HepB peptide was then incubated with a 5 fold excess of the unlabelled homocitrulline peptides. All peptides inhibited the binding of biotinylated Hep B to HLA-DP4 but to varying levels (FIG. 53c-e).

| % inhibition (listed as Cyk8 281-399 Hcit) | Substance | % inhibition |
| --- | --- | --- |
| – | EIN-hcit-RTEMENEFVLI-hcit-hcit-DVDE (EIN[hCit]RTEMENEFVLI[hCit][hCit]DVDE) [Cyk8 182-202 Hcit] | 61% |
| – | HACTQ-hcit-FSH(N)EEIAMATVTA (HACTQ[hCit]FSHNEEIAMATVTA; not fully specified; printed as HACTQ-hcit-FSH(N)EEIAMATVTA) [Aldolase A 238-256 Hcit] | 73% |
| – | IGGVILFHETLYQ-hcit-ADDGRP (IGGVILFHETLYQ[hCit]ADDGRP) [Aldolase A 74-93 Hcit] | 69% |
| – | KFASFID-Hcit-VRFLEQQN-Hcit-MLE (KFASFID[hCit]VRFLEQQN[hCit]MLE) [Cyk8 101-120 Hcit] | 71% |
| – | LEQQN-hcit-MLET-hcit-WSLLQQQ-hcit-T (LEQQN[hCit]MLET[hCit]WSLLQQQ[hCit]T) [Cyk8 112-131 Hcit] | 64% |
| – | LREYQELMNV-hcit-LALDIEI (LREYQELMNV[hCit]LALDIEI) [Cyk8 371-388 Hcit] | 72% |
| – | NYID-Hcit-VRFLEQQN-Hcit-ILLAEL (NYID[hCit]VRFLEQQN[hCit]ILLAEL) [Vimentin 116-135 Hcit] | 44% |
| – | hcit-DGADFA-hcit-WRCVL-hcit-IGEH ([hCit]DGADFA[hCit]WRCVL[hCit]IGEH) [Aldolase A 140-157 Hcit] | 76% |
| 60% | hcit-LALDIEIATYR-hcit-LLEGEE ([hCit]LALDIEIATYR[hCit]LLEGEE) [Cyk8 381-399 Hcit] | – |
